Source: patent US20200262927A1 (OXFORD BIOTHERAPEUTICS, published 2020)
Each block holds one molecule with its values, some of them ahead of it.

Tests used:
[1] = molecular target: human CRTAM on in vitro activated human T cells (human) (UniProt O95727); assay: flow cytometry on in vitro activated human T cells, MFI against antibody concentration
[2] = molecular target: T1, human CRTAM on in vitro activated human T cells (human, UniProt O95727 18-393); assay: flow cytometry on in vitro activated human T cells, goat anti-rat IgG-RPE detection, MFI against antibody concentration
T1 sequence: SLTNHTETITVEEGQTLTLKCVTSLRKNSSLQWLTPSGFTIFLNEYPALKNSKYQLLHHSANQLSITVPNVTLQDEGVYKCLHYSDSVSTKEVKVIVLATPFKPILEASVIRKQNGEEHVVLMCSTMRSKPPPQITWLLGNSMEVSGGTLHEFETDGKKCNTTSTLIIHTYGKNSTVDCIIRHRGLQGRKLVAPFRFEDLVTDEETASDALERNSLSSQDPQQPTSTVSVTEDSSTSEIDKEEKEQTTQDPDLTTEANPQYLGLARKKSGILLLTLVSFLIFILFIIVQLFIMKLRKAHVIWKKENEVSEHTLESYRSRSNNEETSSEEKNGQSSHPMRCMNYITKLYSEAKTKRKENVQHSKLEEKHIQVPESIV
Protocol: Following this the cells were cultured with anti-CD3/anti-CD28 activation beads (Cat #11132D, Thermo Fisher, Waltham, Mass.) for 24 hours before FACS analysis (data not shown).
Fluorescence-activated cell sorting (FACS) analysis was performed in 96-well plate format according to standard protocols. Activated T cells were prepared as above. All subsequent steps of the staining protocol were carried out on ice with ice-cold reagents except for the centrifugation steps which was done at RT. Three-fold serial dilutions of the antibodies, were prepared in FACS buffer to give a 12-point titration curve with final concentrations ranging from 133 nM to 1 pM. The corresponding hybridoma supernatants, isotype controls, and positive control antibodies were diluted in ice cold FACS buffer to be tested at a single point with a final concentration of 30 nM. The antibody dilutions were each dispensed (100 μL/well) into one well for each cell line. […] The final cell pellets were re-suspended in […]+50 μl of 4% paraformaldehyde and fixed until ready to be acquired in a Flow cytometer. […] Geometric mean fluorescence intensity (GMFI or Geo Mean) of each sample was determined using a Guava Easycyte Plus high-throughput flow cytometer (96 well plates) and raw data were analyzed using the Guava Cytosoft Pro Software Module, version 2.2.2 (Millipore, Billerica Mass.). […]

- EC50 (read off the curve) [1]: 2 µg/mL
Molecule: commercially available anti-CRTAM antibody CR24.1 (BioLegend)

- EC50 (read off the curve) [2]: ~0.02 µg/mL
B1: 5A11 parental rat monoclonal anti-CRTAM antibody (antibody, V domains shown)
VH: AVQLVESGGGLVQPKESLKISCAASGFTFSDAAMYWVRQAPGKGLEWVARIRTKTNNYAAHYVESVKGRFTVSRDDSKSMVYLQMDNLKTDDTAMYYCTSVPQGTQDYWGQGVMVTVSS
VL: SYELIQPPSASVTLGNTVSLTCVGDELSKRYVQWSQQKPDKTIVSVIYKDSERPSGISDRFSGSSSGTTATLTIHGTLAEDEADYYCLSTYSDDNLPVFGGGTKLTVL
notes: Rat monoclonal from a hybridoma, detected with goat anti-rat IgG; also called antibody 5A11; BUH-5A11-F2
